Results published in IntAct's records for PubMed 20059950.

B1: RAC-beta serine/threonine-protein kinase (Homo sapiens), P31751 (parent)
chain: MNEVSVIKEGWLHKRGEYIKTWRPRYFLLKSDGSFIGYKERPEAPDQTLPPLNNFSVAECQLMKTERPRPNTFVIRCLQWTTVIERTFHVDSPDEREEWMRAIQMVANSLKQRAPGEDPMDYKCGSPSDSSTTEEMEVAVSKARAKVTMNDFDYLKLLGKGTFGKVILVREKATGRYYAMKILRKEVIIAKDEVAHTVTESRVLQNTRHPFLTALKYAFQTHDRLCFVMEYANGGELFFHLSRERVFTEERARFYGAEIVSALEYLHSRDVVYRDIKLENLMLDKDGHIKITDFGLCKEGISDGATMKTFCGTPEYLAPEVLEDNDYGRAVDWWGLGVVMYEMMCGRLPFYNQDHERLFELILMEEIRFPRTLSPEAKSLLAGLLKKDPKQRLGGGPSDAKEVMEHRFFLSINWQDVVQKKLLPPFKPQVTSEVDTRYFDDEFTAQSITITPPDRYDSLGLLELDQRTHFPQFSYSASIRE

Variants of: B1
Settings: with ttc3_human TTC3, P53804
ttc3_human TTC3, P53804, sequence (P53804 whole entry): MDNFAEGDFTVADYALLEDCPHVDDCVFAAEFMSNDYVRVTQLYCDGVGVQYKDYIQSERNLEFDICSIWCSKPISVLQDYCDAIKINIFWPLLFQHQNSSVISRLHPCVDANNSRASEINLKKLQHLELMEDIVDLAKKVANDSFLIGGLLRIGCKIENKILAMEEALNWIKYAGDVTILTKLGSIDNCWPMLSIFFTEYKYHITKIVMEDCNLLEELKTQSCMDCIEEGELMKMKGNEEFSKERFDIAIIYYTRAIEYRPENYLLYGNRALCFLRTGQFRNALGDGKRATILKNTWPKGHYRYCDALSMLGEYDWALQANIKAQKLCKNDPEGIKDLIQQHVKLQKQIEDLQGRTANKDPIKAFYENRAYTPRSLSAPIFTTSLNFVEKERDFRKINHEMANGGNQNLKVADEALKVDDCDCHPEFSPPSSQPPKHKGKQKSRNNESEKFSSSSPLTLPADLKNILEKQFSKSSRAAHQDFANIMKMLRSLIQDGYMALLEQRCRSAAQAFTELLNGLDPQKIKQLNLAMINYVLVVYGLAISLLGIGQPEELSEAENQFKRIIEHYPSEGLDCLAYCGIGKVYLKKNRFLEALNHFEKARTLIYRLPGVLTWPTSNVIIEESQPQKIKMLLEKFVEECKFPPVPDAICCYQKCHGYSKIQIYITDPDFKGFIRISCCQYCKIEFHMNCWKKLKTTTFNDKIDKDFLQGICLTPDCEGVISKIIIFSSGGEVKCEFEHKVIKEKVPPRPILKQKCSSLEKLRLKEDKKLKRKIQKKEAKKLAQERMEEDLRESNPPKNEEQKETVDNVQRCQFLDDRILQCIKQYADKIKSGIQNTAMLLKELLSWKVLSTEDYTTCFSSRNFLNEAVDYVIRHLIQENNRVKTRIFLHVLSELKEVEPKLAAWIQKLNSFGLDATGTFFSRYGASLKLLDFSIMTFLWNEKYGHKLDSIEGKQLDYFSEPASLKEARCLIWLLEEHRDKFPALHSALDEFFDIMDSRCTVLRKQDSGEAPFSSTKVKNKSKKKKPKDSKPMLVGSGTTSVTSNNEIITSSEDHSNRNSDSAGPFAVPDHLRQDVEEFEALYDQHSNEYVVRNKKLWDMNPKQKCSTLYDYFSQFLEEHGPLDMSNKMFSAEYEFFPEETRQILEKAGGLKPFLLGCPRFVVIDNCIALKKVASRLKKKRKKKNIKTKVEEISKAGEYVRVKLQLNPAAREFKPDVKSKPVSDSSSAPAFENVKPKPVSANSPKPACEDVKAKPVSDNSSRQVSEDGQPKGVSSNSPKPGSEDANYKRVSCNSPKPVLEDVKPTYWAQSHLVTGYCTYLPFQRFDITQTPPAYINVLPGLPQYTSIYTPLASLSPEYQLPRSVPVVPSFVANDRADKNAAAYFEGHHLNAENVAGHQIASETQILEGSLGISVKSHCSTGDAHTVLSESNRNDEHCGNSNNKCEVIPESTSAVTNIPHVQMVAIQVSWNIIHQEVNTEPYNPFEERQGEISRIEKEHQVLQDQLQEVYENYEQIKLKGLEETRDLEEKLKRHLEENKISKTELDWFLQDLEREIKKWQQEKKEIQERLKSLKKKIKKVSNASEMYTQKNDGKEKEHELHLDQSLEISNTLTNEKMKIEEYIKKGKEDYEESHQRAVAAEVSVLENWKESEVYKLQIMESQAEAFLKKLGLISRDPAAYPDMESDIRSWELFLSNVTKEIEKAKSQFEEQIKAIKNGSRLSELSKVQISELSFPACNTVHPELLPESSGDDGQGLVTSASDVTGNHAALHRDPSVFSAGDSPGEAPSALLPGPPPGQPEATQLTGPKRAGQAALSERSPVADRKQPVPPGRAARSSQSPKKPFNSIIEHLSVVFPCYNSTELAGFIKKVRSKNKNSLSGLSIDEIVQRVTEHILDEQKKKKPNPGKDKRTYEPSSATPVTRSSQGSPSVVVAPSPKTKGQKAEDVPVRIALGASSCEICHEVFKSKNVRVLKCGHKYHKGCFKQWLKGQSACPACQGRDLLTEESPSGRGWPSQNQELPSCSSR

| Variant | effect of a mutation on the interaction |
| --- | --- |
| T309A;S474A | disrupting interaction strength |
